Source: the supplement of paper PMC9112550, “Optimization of the antimicrobial peptide Bac7 by deep mutational scanning” (BMC Biology, 2022)

Test system: Escherichia coli TOP10
Assay: shrunken log2 fold change of peptide-encoding DNA abundance (4.5 h post-induction vs induction); higher = less antimicrobial activity (less host growth inhibition)
Settings: time post-induction: 4.5 h; library: site-saturation at positions 5, 18, 19, 20
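Further: peptides expressed intracellularly from a pBAD plasmid library in pooled LB shake-flask culture, induced with 0.3% L-arabinose, DNA abundance read by NGS, three biological replicates, DESeq2 with apeglm shrinkage.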

Row | Sequence | shrunken log2 fold change
1 | RRIRRRPPRLPRPRPRPWSMPRP | -0.121
2 | RRIRRRPPRLPRPRPRPWSVPRP | 0.0267
3 | RRIRRRPPRLPRPRPRPWTEPRP | 0.116
4 | RRIRRRPPRLPRPRPRPWTNPRP | 0.0119
5 | RRIRRRPPRLPRPRPRPWVIPRP | -0.125
6 | RRIRRRPPRLPRPRPRPWVLPRP | 0.0819
7 | RRIRRRPPRLPRPRPRPWWKPRP | 0.226
8 | RRIRRRPPRLPRPRPRPWWYPRP | -0.303
9 | RRIRRRPPRLPRPRPRPWYAPRP | -0.0635
10 | RRIRRRPPRLPRPRPRPWYIPRP | -0.595
11 | RRIRRRPPRLPRPRPRPWYKPRP | -0.371
12 | RRIRRRPPRLPRPRPRPYCDPRP | -0.0241
13 | RRIRRRPPRLPRPRPRPYCRPRP | -0.503
14 | RRIRRRPPRLPRPRPRPYCSPRP | -0.262
15 | RRIRRRPPRLPRPRPRPYDEPRP | -0.302
16 | RRIRRRPPRLPRPRPRPYEAPRP | 0.125
17 | RRIRRRPPRLPRPRPRPYEDPRP | -0.08
18 | RRIRRRPPRLPRPRPRPYFKPRP | -0.572
19 | RRIRRRPPRLPRPRPRPYGDPRP | -0.251
20 | RRIRRRPPRLPRPRPRPYGWPRP | 0.0825
21 | RRIRRRPPRLPRPRPRPYHKPRP | -0.535
22 | RRIRRRPPRLPRPRPRPYHQPRP | -0.0224
23 | RRIRRRPPRLPRPRPRPYIPPRP | -0.468
24 | RRIRRRPPRLPRPRPRPYISPRP | -0.485
25 | RRIRRRPPRLPRPRPRPYIWPRP | -0.335

Row | Sequence | shrunken log2 fold change
26 | RRIRRRPPRLPRPRPRPYKHPRP | -0.89
27 | RRIRRRPPRLPRPRPRPYKMPRP | 0.187
28 | RRIRRRPPRLPRPRPRPYLKPRP | -0.936
29 | RRIRRRPPRLPRPRPRPYLNPRP | -1.13
30 | RRIRRRPPRLPRPRPRPYLRPRP | 0.0234
31 | RRIRRRPPRLPRPRPRPYNPPRP | -0.348
32 | RRIRRRPPRLPRPRPRPYPNPRP | -0.0882
33 | RRIRRRPPRLPRPRPRPYPQPRP | -0.0454
34 | RRIRRRPPRLPRPRPRPYPWPRP | -0.101
35 | RRIRRRPPRLPRPRPRPYQMPRP | -0.0261
36 | RRIRRRPPRLPRPRPRPYQNPRP | -0.74
37 | RRIRRRPPRLPRPRPRPYQPPRP | -0.00931
38 | RRIRRRPPRLPRPRPRPYRLPRP | -0.0421
39 | RRIRRRPPRLPRPRPRPYRPPRP | -0.0416
40 | RRIRRRPPRLPRPRPRPYSSPRP | -0.0612
41 | RRIRRRPPRLPRPRPRPYSWPRP | -0.275
42 | RRIRRRPPRLPRPRPRPYTLPRP | -0.34
43 | RRIRRRPPRLPRPRPRPYVMPRP | -0.882
44 | RRIRRRPPRLPRPRPRPYWCPRP | -0.0451
45 | RRIRSRPPRLPRPRPRPACEPRP | 0.233
46 | RRIRSRPPRLPRPRPRPACMPRP | 0.159
47 | RRIRSRPPRLPRPRPRPACYPRP | -0.0386
48 | RRIRSRPPRLPRPRPRPAEFPRP | 0.00621
49 | RRIRSRPPRLPRPRPRPAFTPRP | -0.0573
50 | RRIRSRPPRLPRPRPRPAGMPRP | 0.223

Row | Sequence | shrunken log2 fold change
51 | RRIRSRPPRLPRPRPRPAHCPRP | 0.0412
52 | RRIRSRPPRLPRPRPRPAIVPRP | 0.385
53 | RRIRSRPPRLPRPRPRPAKHPRP | -0.0685
54 | RRIRSRPPRLPRPRPRPANLPRP | -0.0937
55 | RRIRSRPPRLPRPRPRPANVPRP | 0.218
56 | RRIRSRPPRLPRPRPRPANYPRP | -0.43
57 | RRIRSRPPRLPRPRPRPAPKPRP | 0.569
58 | RRIRSRPPRLPRPRPRPARDPRP | 0.407
59 | RRIRSRPPRLPRPRPRPARVPRP | 0.47
60 | RRIRSRPPRLPRPRPRPAVYPRP | -0.585
61 | RRIRSRPPRLPRPRPRPAWAPRP | 0.333
62 | RRIRSRPPRLPRPRPRPAYCPRP | 0.149
63 | RRIRSRPPRLPRPRPRPCASPRP | 0.121
64 | RRIRSRPPRLPRPRPRPCAVPRP | -0.255
65 | RRIRSRPPRLPRPRPRPCAWPRP | -0.035
66 | RRIRSRPPRLPRPRPRPCDAPRP | -0.122
67 | RRIRSRPPRLPRPRPRPCDGPRP | 0.0333
68 | RRIRSRPPRLPRPRPRPCDSPRP | -0.207
69 | RRIRSRPPRLPRPRPRPCEKPRP | -0.475
70 | RRIRSRPPRLPRPRPRPCEVPRP | -0.333
71 | RRIRSRPPRLPRPRPRPCEWPRP | 0.0266
72 | RRIRSRPPRLPRPRPRPCFKPRP | -0.173
73 | RRIRSRPPRLPRPRPRPCFSPRP | -0.378
74 | RRIRSRPPRLPRPRPRPCFTPRP | -0.521
75 | RRIRSRPPRLPRPRPRPCHHPRP | -0.179
